Results taken from the supplement of paper PMC10567573.

B1: USP39 (parent)
chain: FQGSMRIFTKKLPHPDLPAEEKEQ

Variants of: B1
Experiment: protein stability index of a GFP-peptide fusion (GPS, HEK-293T) (PSI 1-6); higher = more stable
Details: c terminus: a fixed tail appended
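Further: lentivirally expressed fusions sorted by FACS into six bins by GFP to DsRed ratio, PSI derived from sequencing read proportions per bin multiplied by bin number.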

| Variant | protein stability index |
| --- | --- |
| FQGSMRIFTKKLRHPDLPAEEKEQ | 2.17 |
| FQGSMRIFTKKLSHPDLPAEEKEQ | 1.61 |
| FQGSMRIFTKKLWHPDLPAEEKEQ | 3.08 |
| FQGSMRIFTKKLHHPDLPAEEKEQ | 2.4 |
| FQGSMRIFTKKLVHPDLPAEEKEQ | 1.75 |
| FQGSMRIFTKKLNHPDLPAEEKEQ | 2.35 |
| FQGSMRIFTKKLIHPDLPAEEKEQ | 1.86 |
| FQGSMRIFTKKLYHPDLPAEEKEQ | 1.62 |
| FQGSMRIFTKKLKHPDLPAEEKEQ | 2.15 |
| FQGSMRIFTKKLMHPDLPAEEKEQ | 2.12 |
| FQGSMRIFTKKLQHPDLPAEEKEQ | 1.9 |
| FQGSMRIFTKKLGHPDLPAEEKEQ | 2.1 |
| FQGSMRIFTKKLTHPDLPAEEKEQ | 1.68 |
| FQGSMRIFTKKLLHPDLPAEEKEQ | 1.65 |
| FQGSMRIFTKKLPHPDLHAEEKEQ | 1.82 |
| FQGSMRIFTKKLPHPDLRAEEKEQ | 1.88 |
| FQGSMRIFTKKLPHPDLEAEEKEQ | 1.8 |
| FQGSMRIFTKKLPHPDLIAEEKEQ | 1.7 |
| FQGSMRIFTKKLPHPDLAAEEKEQ | 2.07 |
| FQGSMRIFTKKLPHPDLLAEEKEQ | 1.75 |
| FQGSMRIFTKKLPHPDLCAEEKEQ | 1.83 |
| FQGSMRIFTKKLPHPDLWAEEKEQ | 2.1 |
| FQGSMRIFTKKLPHPDLVAEEKEQ | 1.71 |
| FQGSMRIFTKKLPHPDLMAEEKEQ | 2.06 |

| Variant | protein stability index |
| --- | --- |
| FQGSMRIFTKKLPHPDLNAEEKEQ | 1.98 |
| FQGSMRIFTKKLPHPDLQAEEKEQ | 2.15 |
| FQGSMRIFTKKLPHPDLYAEEKEQ | 1.74 |
| FQGSMRIFTKKLPHPDLTAEEKEQ | 1.88 |
| FQGSMRIFTKKLPHPDLFAEEKEQ | 2.11 |
| FQGSMRIFTKKLPHPDLSAEEKEQ | 2.21 |
| FQGSMRIFTKKLPHPDLDAEEKEQ | 1.93 |
| FQGSMRIFTKKLPHPDLGAEEKEQ | 1.98 |
| FQGSMRIFTKKLPHPDLKAEEKEQ | 2.01 |
| FQGSMRIFTKKLPHPALPAEEKEQ | 1.7 |
| FQGSMRIFTKKLPHPTLPAEEKEQ | 2.64 |
| FQGSMRIFTKKLPHPLLPAEEKEQ | 2.3 |
| FQGSMRIFTKKLPHPYLPAEEKEQ | 2.18 |
| FQGSMRIFTKKLPHPGLPAEEKEQ | 1.97 |
| FQGSMRIFTKKLPHPVLPAEEKEQ | 1.99 |
| FQGSMRIFTKKLPHPNLPAEEKEQ | 2.37 |
| FQGSMRIFTKKLPHPELPAEEKEQ | 2.18 |
| FQGSMRIFTKKLPHPMLPAEEKEQ | 1.76 |
| FQGSMRIFTKKLPHPRLPAEEKEQ | 2.17 |
| FQGSMRIFTKKLPHPPLPAEEKEQ | 1.73 |
| FQGSMRIFTKKLPHPWLPAEEKEQ | 2.67 |
| FQGSMRIFTKKLPHPQLPAEEKEQ | 2.19 |
| FQGSMRIFTKKLPHPILPAEEKEQ | 2.13 |
| FQGSMRIFTKKLPHPHLPAEEKEQ | 2.12 |

| Variant | protein stability index |
| --- | --- |
| FQGSMRIFTKKLPHPSLPAEEKEQ | 1.85 |
| FQGSMRIFTKKLPHPFLPAEEKEQ | 2.16 |
| FQGSMRIFTKKLPHPKLPAEEKEQ | 1.94 |
| FQGSMRIFTKKLPHPCLPAEEKEQ | 1.54 |
| FQGSMRIFTKKLPHPDLPAEEDEQ | 2.08 |
| FQGSMRIFTKKLPHPDLPAEEAEQ | 2.23 |
| FQGSMRIFTKKLPHPDLPAEETEQ | 1.93 |
| FQGSMRIFTKKLPHPDLPAEEQEQ | 1.62 |
| FQGSMRIFTKKLPHPDLPAEEHEQ | 1.22 |
| FQGSMRIFTKKLPHPDLPAEEPEQ | 2.09 |
| FQGSMRIFTKKLPHPDLPAEEYEQ | 1.54 |
| FQGSMRIFTKKLPHPDLPAEEREQ | 2.54 |
| FQGSMRIFTKKLPHPDLPAEEFEQ | 1.96 |
| FQGSMRIFTKKLPHPDLPAEEGEQ | 2.13 |
| FQGSMRIFTKKLPHPDLPAEELEQ | 1.78 |
| FQGSMRIFTKKLPHPDLPAEEVEQ | 2.48 |
| FQGSMRIFTKKLPHPDLPAEESEQ | 1.88 |
| FQGSMRIFTKKLPHPDLPAEENEQ | 2.09 |
| FQGSMRIFTKKLPHPDLPAEECEQ | 1.69 |
| FQGSMRIFTKKLPHPDLPAEEMEQ | 2.32 |
| FQGSMRIFTKKLPHPDLPAEEEEQ | 2.11 |
| FQGSMRIFTKKLPHPDLPAEEWEQ | 1.93 |
| FQGSMRIFTKKLPHPDLPAEEIEQ | 1.94 |
| FQGSMRIFTKKLPHPDLPALEKEQ | 2.07 |

| Variant | protein stability index |
| --- | --- |
| FQGSMRIFTKKLPHPDLPAWEKEQ | 2.38 |
| FQGSMRIFTKKLPHPDLPATEKEQ | 2.17 |
| FQGSMRIFTKKLPHPDLPAVEKEQ | 1.5 |
| FQGSMRIFTKKLPHPDLPAIEKEQ | 2.03 |
| FQGSMRIFTKKLPHPDLPAAEKEQ | 1.9 |
| FQGSMRIFTKKLPHPDLPAREKEQ | 1.95 |
| FQGSMRIFTKKLPHPDLPAFEKEQ | 1.85 |
| FQGSMRIFTKKLPHPDLPANEKEQ | 1.51 |
| FQGSMRIFTKKLPHPDLPAKEKEQ | 2.51 |
| FQGSMRIFTKKLPHPDLPAYEKEQ | 1.87 |
| FQGSMRIFTKKLPHPDLPASEKEQ | 2.16 |
| FQGSMRIFTKKLPHPDLPADEKEQ | 1.87 |
| FQGSMRIFTKKLPHPDLPACEKEQ | 2.12 |
| FQGSMRIFTKKLPHPDLPAMEKEQ | 1.67 |
| FQGSMRIFTKKLPHPDLPAHEKEQ | 1.59 |
| FQGSMRIFTKKLPHPDLPAQEKEQ | 1.36 |
| FQGSMRIFTKKLPHPDLPAGEKEQ | 1.59 |
| FQGSMRIFTKKLPHPDLPFEEKEQ | 1.81 |
| FQGSMRIFTKKLPHPDLPPEEKEQ | 2.5 |
| FQGSMRIFTKKLPHPDLPLEEKEQ | 2.25 |
| FQGSMRIFTKKLPHPDLPYEEKEQ | 1.34 |
| FQGSMRIFTKKLPHPDLPNEEKEQ | 1.79 |
| FQGSMRIFTKKLPHPDLPVEEKEQ | 2.25 |
| FQGSMRIFTKKLPHPDLPWEEKEQ | 1.58 |

| Variant | protein stability index |
| --- | --- |
| FQGSMRIFTKKLPHPDLPTEEKEQ | 1.68 |
| FQGSMRIFTKKLPHPDLPKEEKEQ | 1.73 |
| FQGSMRIFTKKLPHPDLPREEKEQ | 1.64 |
| FQGSMRIFTKKLPHPDLPGEEKEQ | 1.63 |
| FQGSMRIFTKKLPHPDLPCEEKEQ | 1.96 |
| FQGSMRIFTKKLPHPDLPSEEKEQ | 2.08 |
| FQGSMRIFTKKLPHPDLPQEEKEQ | 2.31 |
| FQGSMRIFTKKLPHPDLPHEEKEQ | 2.25 |
| FQGSMRIFTKKLPHPDLPEEEKEQ | 2.37 |
| FQGSMRIFTKKLPHPDLPDEEKEQ | 2.07 |
| FQGSMRIFTKKLPHPDLPMEEKEQ | 1.63 |
| FQGSMRIFTKKLPHPDLPIEEKEQ | 1.53 |
| FQGSMRIFTKKLPHPDLPAEEKFQ | 1.38 |
| FQGSMRIFTKKLPHPDLPAEEKCQ | 1.79 |
| FQGSMRIFTKKLPHPDLPAEEKDQ | 2.16 |
| FQGSMRIFTKKLPHPDLPAEEKAQ | 1.65 |
| FQGSMRIFTKKLPPPDLPAEEKEQ | 1.86 |
| FQGSMRIFTKKLPGPDLPAEEKEQ | 1.77 |
| FQGSMRIFTKKLPDPDLPAEEKEQ | 2.18 |
| FQGSMRIFTKKLPNPDLPAEEKEQ | 1.94 |
| FQGSMRIFTKKLPLPDLPAEEKEQ | 2.36 |
| FQGSMRIFTKKLPFPDLPAEEKEQ | 1.92 |
| FQGSMRIFTKKLPMPDLPAEEKEQ | 2.36 |
| FQGSMRIFTKKLPCPDLPAEEKEQ | 2.27 |

| Variant | protein stability index |
| --- | --- |
| FQGSMRIFTKKLPWPDLPAEEKEQ | 1.99 |
| FQGSMRIFTKKLPKPDLPAEEKEQ | 1.77 |
| FQGSMRIFTKKLPVPDLPAEEKEQ | 1.88 |
| FQGSMRIFTKKLPIPDLPAEEKEQ | 1.84 |
| FQGSMRIFTKKLPAPDLPAEEKEQ | 1.9 |
| FQGSMRIFTKKLPRPDLPAEEKEQ | 1.93 |
| FQGSMRIFTKKLPTPDLPAEEKEQ | 2.36 |
| FQGSMRIFTKKLPSPDLPAEEKEQ | 1.65 |
| FQGSMRIFTKKLPEPDLPAEEKEQ | 2.05 |
| FQGSMRIFTKKLPYPDLPAEEKEQ | 1.8 |
| FQGSMRIFTKKLPQPDLPAEEKEQ | 1.78 |
| FQGSMRIFTKKLPHPDKPAEEKEQ | 1.66 |
| FQGSMRIFTKKLPHPDRPAEEKEQ | 1.9 |
| FQGSMRIFTKKLPHPDHPAEEKEQ | 1.92 |
| FQGSMRIFTKKLPHPDDPAEEKEQ | 2.32 |
| FQGSMRIFTKKLPHPDNPAEEKEQ | 2.26 |
| FQGSMRIFTKKLPHPDVPAEEKEQ | 1.88 |
| FQGSMRIFTKKLPHPDYPAEEKEQ | 2.5 |
| FQGSMRIFTKKLPHPDPPAEEKEQ | 1.96 |
| FQGSMRIFTKKLPHPDSPAEEKEQ | 1.95 |
| FQGSMRIFTKKLPHPDFPAEEKEQ | 2.36 |
| FQGSMRIFTKKLPHPDIPAEEKEQ | 1.89 |
| FQGSMRIFTKKLPHPDAPAEEKEQ | 1.99 |
| FQGSMRIFTKKLPHPDGPAEEKEQ | 2.19 |

| Variant | protein stability index |
| --- | --- |
| FQGSMRIFTKKLPHPDMPAEEKEQ | 1.95 |
| FQGSMRIFTKKLPHPDEPAEEKEQ | 2.24 |
| FQGSMRIFTKKLPHPDCPAEEKEQ | 2.33 |
| FQGSMRIFTKKLPHPDWPAEEKEQ | 2.06 |
| FQGSMRIFTKKLPHPDTPAEEKEQ | 2.1 |
| FQGSMRIFTKKLPHPDQPAEEKEQ | 2.34 |
| FQGSMRIFTKKLPHNDLPAEEKEQ | 2.41 |
| FQGSMRIFTKKLPHTDLPAEEKEQ | 1.93 |
| FQGSMRIFTKKLPHWDLPAEEKEQ | 1.48 |
| FQGSMRIFTKKLPHDDLPAEEKEQ | 1.73 |
| FQGSMRIFTKKLPHVDLPAEEKEQ | 1.62 |
| FQGSMRIFTKKLPHSDLPAEEKEQ | 1.94 |
| FQGSMRIFTKKLPHFDLPAEEKEQ | 2.14 |
| FQGSMRIFTKKLPHCDLPAEEKEQ | 1.64 |
| FQGSMRIFTKKLPHMDLPAEEKEQ | 2.1 |
| FQGSMRIFTKKLPHYDLPAEEKEQ | 1.34 |
| FQGSMRIFTKKLPHADLPAEEKEQ | 1.92 |
| FQGSMRIFTKKLPHRDLPAEEKEQ | 2.03 |
| FQGSMRIFTKKLPHHDLPAEEKEQ | 2.15 |
| FQGSMRIFTKKLPHLDLPAEEKEQ | 1.85 |
| FQGSMRIFTKKLPHIDLPAEEKEQ | 1.75 |
| FQGSMRIFTKKLPHQDLPAEEKEQ | 1.74 |
| FQGSMRIFTKKLPHEDLPAEEKEQ | 2.19 |
| FQGSMRIFTKKLPHKDLPAEEKEQ | 1.76 |

| Variant | protein stability index |
| --- | --- |
| FQGSMRIFTKKLPHGDLPAEEKEQ | 1.92 |
| FQGSMRIFTKKLPHPDLPAENKEQ | 2.36 |
| FQGSMRIFTKKLPHPDLPAEAKEQ | 1.81 |
| FQGSMRIFTKKLPHPDLPAECKEQ | 1.54 |
| FQGSMRIFTKKLPHPDLPAESKEQ | 2.12 |
| FQGSMRIFTKKLPHPDLPAEYKEQ | 1.62 |
| FQGSMRIFTKKLPHPDLPAEQKEQ | 2.08 |
| FQGSMRIFTKKLPHPDLPAEHKEQ | 2.25 |
| FQGSMRIFTKKLPHPDLPAEMKEQ | 2.23 |
| FQGSMRIFTKKLPHPDLPAEKKEQ | 1.91 |
| FQGSMRIFTKKLPHPDLPAEVKEQ | 1.4 |
| FQGSMRIFTKKLPHPDLPAEWKEQ | 1.32 |
| FQGSMRIFTKKLPHPDLPAELKEQ | 2.04 |
| FQGSMRIFTKKLPHPDLPAEFKEQ | 2.29 |
| FQGSMRIFTKKLPHPDLPAERKEQ | 1.96 |
| FQGSMRIFTKKLPHPDLPAEPKEQ | 2.02 |
| FQGSMRIFTKKLPHPDLPAETKEQ | 2.01 |
| FQGSMRIFTKKLPHPDLPAEIKEQ | 2.45 |
| FQGSMRIFTKKLPHPDLPAEDKEQ | 1.73 |
| FQGSMRIFTKKLPHPDLPAEGKEQ | 1.88 |
